Legend:
[1] = target: P74-26 tail tube protein (TTP), gp93, in the tail tube of purified virions (bacteriophage P74-26); test: cryo-EM structure
[2] = target: P74-26 tail tube protein (TTP), gp93, recombinant wild type (bacteriophage P74-26); test: SEC-MALS
[3] = target: P74-26 tail tube protein (TTP), gp93, recombinant wild type (bacteriophage P74-26); test: light scattering of tube assembly
[4] = target: P74-26 TTP L229A variant (bacteriophage P74-26); test: light scattering of tube assembly

P74-26 tail tube protein (TTP), gp93, in the tail tube of purified virions (natural protein)
stoichiometry N [1]: 3

P74-26 tail tube protein (TTP), gp93, recombinant wild type (natural protein)
mass fraction of the hexamer peak [2]: 6% | stoichiometry N [2]: 6 | tube growth rate at 37 °C relative to 20 °C (x the 20°C rate) [3]: 68 | tube growth rate at 50 °C relative to 20 °C (x the 20°C rate) [3]: 3520

P74-26 TTP L229A variant (natural protein)
tube formation rate relative to WT [4]: 10 % of the WT

Reference: doi:10.1101/2022.10.03.510161
